According to the supplement of paper PMC10724198:
± gives the standard deviation of the averaged measurements.

How the values were obtained:
Saccharomyces cerevisiae [1] = assay: protein stability index of tFT-peptide fusion (C-terminal peptide) (PSI (0-1 scale)); higher = more stable (slower turnover)
Procedure: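 MPS profiling in S. cerevisiae of the tFT-X12 degron library: putative degron peptides plus stable controls, 12 aa, fused to the C-terminus of a sfGFP-mCherry timer. Cells are FACS-sorted into 8 mCherry/sfGFP bins and deep-sequenced. PSI runs from 0 (unstable) to 1 (stable). Backgrounds are wild type, das1Δ and doa10Δ at 30 °C, and wild type, das1Δ, cdc34-1 and cdc53-1 at 37 °C; 2-3 technical replicates each.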

Saccharomyces cerevisiae [2] = assay: as above; settings: genetic background: wild type; temperature: 30 C
[3] = genetic background: cdc34-1, temperature: 37 C
[4] = genetic background: cdc53-1, temperature: 37 C
[5] = genetic background: das1 deletion, temperature: 30 C
[6] = genetic background: das1 deletion, temperature: 37 C
[7] = genetic background: doa10 deletion, temperature: 30 C
[8] = genetic background: wild type, temperature: 30 C
[9] = genetic background: wild type, temperature: 37 C
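Also: PSI is a weighted mean of sequencing reads over stability bins, variants kept only with over 10 reads, mCherry proximal and sfGFP distal, peptide attached via GGGS linker.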

| Sequence | protein stability index (Saccharomyces cerevisiae [1]; [3]) | protein stability index (Saccharomyces cerevisiae [1]; [4]) | protein stability index (Saccharomyces cerevisiae [1]; [5]) | protein stability index (Saccharomyces cerevisiae [1]; [6]) | protein stability index (Saccharomyces cerevisiae [1]; [7]) | protein stability index (Saccharomyces cerevisiae [1]; [8]) | protein stability index (Saccharomyces cerevisiae [1]; [9]) | protein stability index (Saccharomyces cerevisiae [2]) |
| --- | --- | --- | --- | --- | --- | --- | --- | --- |
| KDIFQIYTLYVF | 0.407 ± 0.011 | 0.4611 ± 0.0014 | 0.329 ± 0.035 | 0.502 ± 0.023 | 0.277 ± 0.0099 | 0.3 ± 0.022 | 0.467 ± 0.012 | 0.39 ± 0.034 |
| KFWVVLIEIKYH | 0.0696 ± 0.0057 | 0.132 ± 0.03 | 0.159 ± 0.036 | 0.35 ± 0.092 | 0.0681 ± 0.015 | 0.0691 ± 0.036 | 0.1043 ± 0.00085 | 0.172 ± 0.0091 |
| KGSKGELGVHVG | 0.686 ± 0.03 | 0.712 ± 0.013 | 0.63 ± 0.016 | 0.728 ± 0.0034 | 0.628 ± 0.023 | 0.634 ± 0.021 | 0.6889 ± 0.0015 | 0.671 ± 0.34 |
| KIILMCYTLITL | 0.255 ± 0.033 | 0.347 ± 0.041 | 0.228 ± 0.039 | 0.43 ± 0.018 | 0.2009 ± 0.0016 | 0.225 ± 0.017 | 0.413 ± 0.04 | 0.264 ± 0.015 |
| KIKQIKINNKIN | 0.43 ± 0.0033 | 0.654 ± 0.13 | 0.703 ± 0.026 | 0.758 ± 0.043 | 0.0896 ± 0.034 | 0.092 ± 0.032 | 0.145 ± 0.04 | 0.157 ± 0.0073 |
| KKIKKYTRKLKI | 0.707 ± 0.0088 | 0.765 ± 0.014 | 0.673 ± 0.05 | 0.719 ± 0.053 | 0.323 ± 0.014 | 0.383 ± 0.02 | 0.63 ± 0.0069 | 0.455 ± 0.048 |
| KKKKRVKIQKKN | 0.628 ± 0.059 | 0.707 ± 0.052 | 0.683 ± 0.041 | 0.689 ± 0.041 | 0.259 ± 0.04 | 0.244 ± 0.061 | 0.446 ± 0.009 | 0.404 ± 0.03 |
| KKNLTHSIRVQA | 0.62 ± 0.028 | 0.717 ± 0.0094 | 0.567 ± 0.033 | 0.696 ± 0.011 | 0.352 ± 0.017 | 0.377 ± 0.021 | 0.585 ± 0.015 | 0.505 ± 0.025 |
| KMKGLINKRKES | 0.533 ± 0.05 | 0.657 ± 0.01 | 0.655 ± 0.037 | 0.68 ± 0.015 | 0.146 ± 0.0029 | 0.12 ± 0.05 | 0.233 ± 0.027 | 0.219 ± 0.0027 |
| KNVFLIRGRKNC | 0.627 ± 0.054 | 0.689 ± 0.0093 | 0.638 ± 0.029 | 0.721 ± 0.018 | 0.154 ± 0.021 | 0.193 ± 0.014 | 0.41 ± 0.017 | 0.356 ± 0.098 |
| KSRLFCFVYFLL | 0.333 ± 0.011 | 0.413 ± 0.013 | 0.311 ± 0.032 | 0.501 ± 0.007 | 0.137 ± 0.0024 | 0.141 ± 0.02 | 0.17 ± 0.0063 | 0.167 ± 0.013 |
| KTDVYPVSFFTC | 0.532 ± 0.013 | 0.738 ± 0.0099 | 0.645 ± 0.043 | 0.711 ± 0.055 | 0.0924 ± 0.019 | 0.0951 ± 0.026 | 0.133 ± 0.013 | 0.184 ± 0.028 |
| KVLLYWRHAQRQ | 0.652 ± 0.052 | 0.6916 ± 0.006 | 0.654 ± 0.019 | 0.733 ± 0.01 | 0.387 ± 0.0069 | 0.44 ± 0.0086 | 0.611 ± 0.013 | 0.548 ± 0.11 |
| KYKLYGIMIIEG | 0.39 ± 0.066 | 0.464 ± 0.016 | 0.283 ± 0.039 | 0.472 ± 0.026 | 0.258 ± 0.012 | 0.262 ± 0.013 | 0.462 ± 0.04 | 0.329 ± 0.078 |
| LAGLVRFWGCVG | 0.622 ± 0.022 | 0.7111 ± 0.0023 | 0.656 ± 0.015 | 0.748 ± 0.019 | 0.122 ± 0.019 | 0.141 ± 0.03 | 0.236 ± 0.0026 | 0.341 ± 0.0037 |
| LASSCYRHLLVV | 0.242 ± 0.0047 | 0.323 ± 0.0065 | 0.289 ± 0.029 | 0.4343 ± 0.0036 | 0.0628 ± 0.016 | 0.0775 ± 0.017 | 0.078 ± 0.044 | 0.137 ± 0.002 |
| LCCTLFFCYSYH | 0.569 ± 0.032 | 0.547 ± 0.064 | 0.418 ± 0.017 | 0.554 ± 0.038 | 0.374 ± 0.0053 | 0.388 ± 0.019 | 0.617 ± 0.098 | 0.424 ± 0.013 |
| LCSCMWISAIAI | 0.5594 ± 0.0027 | 0.574 ± 0.006 | 0.435 ± 0.024 | 0.582 ± 0.014 | 0.41 ± 0.036 | 0.435 ± 0.027 | 0.533 ± 0.039 | 0.445 ± 0.0055 |
| LCSLPIVCCFFL | 0.513 ± 0.015 | 0.552 ± 0.016 | 0.434 ± 0.031 | 0.5703 ± 0.0027 | 0.424 ± 0.016 | 0.427 ± 0.022 | 0.534 ± 0.016 | 0.489 ± 0.029 |
| LCVGFISFCFCL | 0.48 ± 0.032 | 0.4954 ± 0.0039 | 0.451 ± 0.0075 | 0.53 ± 0.015 | 0.434 ± 0.01 | 0.435 ± 0.014 | 0.512 ± 0.017 | 0.47934 ± 0.00045 |

| Sequence | protein stability index (Saccharomyces cerevisiae [1]; [3]) | protein stability index (Saccharomyces cerevisiae [1]; [4]) | protein stability index (Saccharomyces cerevisiae [1]; [5]) | protein stability index (Saccharomyces cerevisiae [1]; [6]) | protein stability index (Saccharomyces cerevisiae [1]; [7]) | protein stability index (Saccharomyces cerevisiae [1]; [8]) | protein stability index (Saccharomyces cerevisiae [1]; [9]) | protein stability index (Saccharomyces cerevisiae [2]) |
| --- | --- | --- | --- | --- | --- | --- | --- | --- |
| LCYFFFISLFLG | 0.628 ± 0.032 | 0.572 ± 0.014 | 0.465 ± 0.021 | 0.55 ± 0.0089 | 0.2248 ± 0.0011 | 0.26 ± 0.023 | 0.403 ± 0.0052 | 0.328 ± 0.0056 |
| LFGFILLGVSCC | 0.0506 ± 0.0034 | 0.0719 ± 0.0073 | 0.164 ± 0.029 | 0.22 ± 0.0022 | 0.156 ± 0.0021 | 0.168 ± 0.024 | 0.193 ± 0.015 | 0.211 ± 0.029 |
| LFLIFFSFLFLC | 0.135 ± 0.041 | 0.0847 ± 0.014 | 0.206 ± 0.024 | 0.26132 ± 1.1e-05 | 0.211 ± 0.0073 | 0.114 ± 0.04 | 0.141 ± 0.02 | 0.166 ± 0.028 |
| LFLIYCFAFSIG | 0.258 ± 0.083 | 0.328 ± 0.032 | 0.22 ± 0.034 | 0.4171 ± 0.00091 | 0.194 ± 0.02 | 0.239 ± 0.021 | 0.366 ± 0.014 | 0.367 ± 0.049 |
| LFNRCCTILVVW | 0.189 ± 0.025 | 0.22 ± 0.026 | 0.198 ± 0.02 | 0.343 ± 0.01 | 0.181 ± 0.0051 | 0.2 ± 0.029 | 0.316 ± 0.021 | 0.299 ± 0.016 |
| LFSVFSLVLFIF | 0.338 ± 0.0079 | 0.413 ± 0.011 | 0.34 ± 0.029 | 0.501 ± 0.0086 | 0.316 ± 0.017 | 0.272 ± 0.023 | 0.454 ± 0.0073 | 0.427 ± 0.091 |
| LFVSLSFVVFLP | 0.276 ± 0.0041 | 0.381 ± 0.014 | 0.26 ± 0.037 | 0.421 ± 0.013 | 0.261 ± 0.013 | 0.261 ± 0.025 | 0.391 ± 0.0072 | 0.34 ± 0.077 |
| LFVVFVLLTFFV | 0.231 ± 0.039 | 0.253 ± 0.0056 | 0.243 ± 0.032 | 0.337 ± 0.014 | 0.207 ± 0.02 | 0.217 ± 0.031 | 0.29 ± 0.011 | 0.279 ± 0.089 |
| LGSCSLIYRKFS | 0.597 ± 0.026 | 0.728 ± 0.017 | 0.639 ± 0.02 | 0.703 ± 0.029 | 0.0934 ± 0.0075 | 0.0958 ± 0.017 | 0.172 ± 0.021 | 0.204 ± 0.0059 |
| LHLSSFVILLEL | 0.36297 ± 6.8e-05 | 0.317 ± 0.035 | 0.353 ± 0.024 | 0.458 ± 0.018 | 0.478 ± 0.023 | 0.346 ± 0.014 | 0.437 ± 0.021 | 0.421 ± 0.021 |
| LIEMVTTRYRLC | 0.59 ± 0.02 | 0.7192 ± 0.0016 | 0.622 ± 0.016 | 0.717 ± 0.034 | 0.132 ± 0.0065 | 0.128 ± 0.02 | 0.189 ± 0.018 | 0.242 ± 0.044 |
| LKTKKKKTNTQK | 0.627 ± 0.0068 | 0.633 ± 0.057 | 0.717 ± 0.03 | 0.68 ± 0.038 | 0.67 ± 0.033 | 0.715 ± 0.056 | 0.683 ± 0.0086 | 0.495 ± 0.037 |
| LLCLLLVPQPHR | 0.604 ± 0.015 | 0.66 ± 0.011 | 0.5965 ± 0.0049 | 0.651 ± 0.017 | 0.574 ± 0.027 | 0.584 ± 0.019 | 0.6376 ± 0.003 | 0.0268 ± 0.019 |
| LLFCFSVILFTC | 0.0922 ± 0.0021 | 0.189 ± 0.062 | 0.187 ± 0.033 | 0.291 ± 0.018 | 0.0562 ± 0.022 | 0.0652 ± 0.018 | 0.0808 ± 0.0077 | 0.147 ± 0.018 |
| LLMCCLPFLWVF | 0.409 ± 0.033 | 0.432 ± 0.011 | 0.328 ± 0.039 | 0.4679 ± 0.0022 | 0.2085 ± 0.002 | 0.228 ± 0.022 | 0.316 ± 0.0053 | 0.306 ± 0.021 |
| LLRFFPLLLFSF | 0.135 ± 0.048 | 0.114 ± 0.01 | 0.213 ± 0.03 | 0.278 ± 0.02 | 0.181 ± 0.0067 | 0.116 ± 0.016 | 0.159 ± 0.013 | 0.122 ± 0.083 |
| LLSPFLLMLLFL | 0.4001 ± 0.0019 | 0.395 ± 0.0071 | 0.344 ± 0.007 | 0.432 ± 0.0046 | 0.221 ± 0.01 | 0.2 ± 0.02 | 0.317 ± 0.013 | 0.28 ± 0.004 |
| LLTGRFRILLVV | 0.0537 ± 0.0092 | 0.0715 ± 0.0019 | 0.176 ± 0.019 | 0.276 ± 0.004 | 0.0579 ± 0.017 | 0.0444 ± 0.0073 | 0.0674 ± 0.026 | 0.0704 ± 0.021 |
| LLVRYRRALVLL | 0.338 ± 0.0093 | 0.412 ± 0.018 | 0.425 ± 0.025 | 0.53 ± 0.023 | 0.0924 ± 0.015 | 0.0953 ± 0.036 | 0.131 ± 0.033 | 0.142 ± 0.051 |
